{
  "source": "paper PMC12102759",
  "parents": {"B1": {"name": "AZIN2 peptide 1-16 (Antizyme inhibitor 2), 16-mer library wild type / NSP3 ADRP (ORF1ab Nsp3b ADRP, residues 1023-1192) (parent)", "chain 1": "MAGYLSESDFVMVEEG", "chain 2": "not shown"}, "B2": {"name": "TET3 peptide 458-473 (Methylcytosine dioxygenase TET3), 16-mer library wild type / NSP3 SUD-M (ORF1ab Nsp3c SUD-M, residues 1356-1493) (parent)", "chain 1": "DPMAELEQLLGSASDY", "chain 2": "LPSIISNEKQEILGTVSWNLREMLAHAEETRKLMPVCVETKAIVSTIQRKYKGIKIQEGVVDYGARFYFYTSKTTVASLINTLNDLNETLVTMPLGYVTHGLNLEEAARYMRSLKVPATVSVSSPDAVTAYNGYLTSS"}},
  "data": [
    {"variants_of": "B1", "details": "with NSP3 ADRP (ORF1ab Nsp3b ADRP, residues 1023-1192); bait immobilised on MaxiSorp plates (10 µg), library pre-cleared on GST, 2 h binding at 4 °C, five washes; one round per day, days 1-4; value from days 2 and 3; keep out of graded; scale: average fractional NGS count over selection days 2 and 3", "values": [
      {"variant": "chain 1 S8Q", "screen value": "2.27e-05"},
      {"variant": "chain 1 S8F", "screen value": "4.02e-05"},
      {"variant": "chain 1 S8D", "screen value": "1.43e-05"},
      {"variant": "chain 1 S6G", "screen value": 0},
      {"variant": "chain 1 S6T", "screen value": 0},
      {"variant": "chain 1 S6H", "screen value": 0},
      {"variant": "chain 1 S6W", "screen value": 0},
      {"variant": "chain 1 S6Q", "screen value": 0},
      {"variant": "chain 1 M12P", "screen value": "6.03e-05"},
      {"variant": "chain 1 M12G", "screen value": 0},
      {"variant": "chain 1 M12D", "screen value": "6.55e-05"},
      {"variant": "chain 1 M12Q", "screen value": 0},
      {"variant": "chain 1 M12K", "screen value": 0},
      {"variant": "chain 1 M12W", "screen value": 0},
      {"variant": "chain 1 F10R", "screen value": 0},
      {"variant": "chain 1 F10D", "screen value": 0},
      {"variant": "chain 1 F10W", "screen value": "2.93e-05"},
      {"variant": "chain 1 F10S", "screen value": "1.39e-05"},
      {"variant": "chain 1 V11Q", "screen value": "1.04e-05"},
      {"variant": "chain 1 V11N", "screen value": "1.5e-05"},
      {"variant": "chain 1 V11K", "screen value": "2.1e-05"},
      {"variant": "chain 1 V11R", "screen value": "4.17e-05"}
    ]},
    {"variants_of": "B2", "details": "with NSP3 SUD-M (ORF1ab Nsp3c SUD-M, residues 1356-1493); bait immobilised on MaxiSorp plates (10 µg), library pre-cleared on GST, 2 h binding at 4 °C, five washes; one round per day, days 1-4; value from days 2 and 3; keep out of graded; scale: average fractional NGS count over selection days 2 and 3", "values": [
      {"variant": "chain 1 L9N", "screen value": 0},
      {"variant": "chain 1 L9A", "screen value": 0},
      {"variant": "chain 1 L9Y", "screen value": 0},
      {"variant": "chain 1 L9T", "screen value": 0},
      {"variant": "chain 1 E7I", "screen value": 0},
      {"variant": "chain 1 E7K", "screen value": 0},
      {"variant": "chain 1 E7N", "screen value": "1.67e-05"},
      {"variant": "chain 1 E7T", "screen value": 0},
      {"variant": "chain 1 E7G", "screen value": 0},
      {"variant": "chain 1 E7Y", "screen value": 0},
      {"variant": "chain 1 L10P", "screen value": 0},
      {"variant": "chain 1 L10Q", "screen value": 0},
      {"variant": "chain 1 L10R", "screen value": 0},
      {"variant": "chain 1 L10T", "screen value": 0},
      {"variant": "chain 1 G11W", "screen value": 0},
      {"variant": "chain 1 G11H", "screen value": 0},
      {"variant": "chain 1 G11A", "screen value": 0},
      {"variant": "chain 1 G11I", "screen value": 0},
      {"variant": "chain 1 G11S", "screen value": 0},
      {"variant": "chain 1 E5K", "screen value": 0},
      {"variant": "chain 1 E5Q", "screen value": 0},
      {"variant": "chain 1 M3N", "screen value": 0},
      {"variant": "chain 1 M3Q", "screen value": 0},
      {"variant": "chain 1 M3S", "screen value": 0},
      {"variant": "chain 1 M3T", "screen value": 0},
      {"variant": "chain 1 Y16A", "screen value": 0},
      {"variant": "chain 1 Y16H", "screen value": 0},
      {"variant": "chain 1 L6K", "screen value": 0},
      {"variant": "chain 1 L6W", "screen value": 0},
      {"variant": "chain 1 L6M", "screen value": 0},
      {"variant": "chain 1 L6R", "screen value": 0},
      {"variant": "chain 1 L6S", "screen value": 0},
      {"variant": "chain 1 A13E", "screen value": 0},
      {"variant": "chain 1 A13D", "screen value": 0},
      {"variant": "chain 1 A13V", "screen value": 0},
      {"variant": "chain 1 A13N", "screen value": 0},
      {"variant": "chain 1 S12E", "screen value": 0},
      {"variant": "chain 1 S12K", "screen value": 0},
      {"variant": "chain 1 S12G", "screen value": 0},
      {"variant": "chain 1 S12Q", "screen value": 0},
      {"variant": "chain 1 S12I", "screen value": 0},
      {"variant": "chain 1 S12R", "screen value": 0},
      {"variant": "chain 1 Q8S", "screen value": 0},
      {"variant": "chain 1 Q8K", "screen value": 0},
      {"variant": "chain 1 Q8H", "screen value": 0},
      {"variant": "chain 1 Q8R", "screen value": 0},
      {"variant": "chain 1 Q8T", "screen value": 0},
      {"variant": "chain 1 Q8P", "screen value": 0},
      {"variant": "chain 1 Q8M", "screen value": 0},
      {"variant": "chain 1 D15K", "screen value": 0},
      {"variant": "chain 1 D15G", "screen value": 0},
      {"variant": "chain 1 D15N", "screen value": 0},
      {"variant": "chain 1 P2H", "screen value": 0},
      {"variant": "chain 1 P2R", "screen value": 0},
      {"variant": "chain 1 P2A", "screen value": 0},
      {"variant": "chain 1 P2W", "screen value": 0},
      {"variant": "chain 1 P2D", "screen value": 0},
      {"variant": "chain 1 A4L", "screen value": 0},
      {"variant": "chain 1 A4N", "screen value": 0},
      {"variant": "chain 1 S14F", "screen value": 0},
      {"variant": "chain 1 S14I", "screen value": 0},
      {"variant": "chain 1 S14W", "screen value": 0}
    ]}
  ]
}
